# Assay results published in patent US10391180B2, “Self-assembling complex for targeting chemical agents to cells” (CEDARS-SINAI MEDICAL CENTER, priority 2007, dated 2019).
# B1: HerDox: non-covalent complex of HerPBK10, a small double-stranded nucleic acid and intercalated Dox (conjugate)
# chain: LPPRLKEMKSQESAAGSKLVLRCETSSEYSSLRFKWFKNGNELNRKNKPQNIKIQKKPGKSELRINKASLADSGEYMCKVISKLGNDSASANITIVESNEIITGMPASTEGAYVSSESPIRISVSTEGANTSSSTSTSTTGTSHLVKCAEKEKTFCVNGGECFMVKDLSNPSRYLCKCQPGFTGARCTENVPMKVQNQEKAEELYMRRAAMYEEGPPPSYESVVSAAPVAAALGSPFDAPLDPPFVPPRYLRPTGGRNSIRYSELAPLFDTTRVYLVDNKSTDVASLNYQNDHSNFLTTVIQNNDYSPGEASTQTINLDDRSHWGGDLKTILHTNMPNVNEFMFTNKFKARVMVSRLPTKDNQVELKYEWVEFTLPEGNYSETMTIDLMNNAIVEHYLKVGRQNGVLESDIGVKFDTRNFRLGFDPVTGLVMPGVYTNEAFHPDIILLPGCGVDFTHSRLSNLLGIRKRQPFQEGFRITYDDLEGGNIPALLDVDAYQASLKDDTEQGGGGAGGSNSSGSGAEENSNAAAAAMQPVEDMNDHAIRGDTFATRAEEKRAEAEAAAEAAAPAAQPEVEKPQKKPVIKPLTEDSKKRSYNLISNDSTFTQYRSWYLAYNYGDPQTGIRSWTLLCTPDVTCGSEQVYWSLPDMMQDPVTFRSTRQISNFPVVGAELLPVHSKSFYNDQAVYSQLIRQFTSLTHVFNRFPENQILARPPAPTITTVSENVPALTDHGTLPLRNSIGGVQRVTITDARRRTCPYVYKALGIVSPRVLSSRTFKKKKKKKKKK
# modifications: left off: small tags and cut ends
# notes: non-covalent complex of HerPBK10, a small double-stranded nucleic acid and intercalated Dox
# What was measured:
# MDA-MB-435 = assay: Cytotoxicity on cell lines (Table I); format: cell-based; conditions: 50% reduction in cell survival, mean ± 1 SD, read-out: EC50** (uM HerDox)
# Experimental: (§1) FIGS. 17 (A)-(B) illustrates relative cell surface HER subunit levels and cytotoxicity on cell types. FIG. 17 (A) depicts a graph of relative cell surface HER subunit levels as measured by ELISA. Cells were incubated with anti-HER subunit antibodies followed by HRP-conjugated secondary antibodies using standard procedures. Relative cell numbers were measured by crystal violet staining and quantified by measuring crystal violet absorbance at 590 nm. Relative subunit levels are reported as the ELISA signal of each cell population normalized by the relative cell number, or Abs 450 run/590 nm. FIG. 17 (B) depicts toxicity to cells displaying differential HER2. Cytotoxicities from a range of HerDox doses were assessed on each cell line by metabolic assay and confirmed by crystal violet stain. CD50 values shown in log scale were determined by non-linear regression analyses of HerDox dose curves using a scientific graphing program and confirmed using a calculator. The relative HER2 level of each cell line is shown next to each CD50 value.
# SKOV3 = assay: Cytotoxicity on cell lines (Table I); format: cell-based; conditions: 50% reduction in cell survival, mean ± 1 SD, read-out: EC50** (uM HerDox)
# Experimental: as §1
# T47D = assay: Cytotoxicity on cell lines (Table I); format: cell-based; conditions: 50% reduction in cell survival, mean ± 1 SD, read-out: EC50** (uM HerDox)
# Experimental: as §1
# [1] = Stability in mouse whole blood; format: in vitro ADME; conditions: 0.12 mg/mL Dox conc, 37° C. up to 1 h, 0.5 mM EDTA
# Experimental: FIG. 13 illustrates stability in mouse whole blood. Freshly collected whole blood was processed by ultrafiltration through 10K MW cutoff membranes after up to 1 h incubation with HerDox or Dox at 37° C. As 0.5 mM EDTA was used as an anticoagulant, HerDox in EDTA alone (-blood) was processed in parallel. Bars represent fluorescence of retained (retentates) or released (filtrates) Dox as a percentage of the total fluorescence of each sample. Scale of Y-axis is adjusted to show presence of filtrate samples. N=3 per treatment.
# To assess the feasibility of measuring in vivo stability, the inventors incubated HerDox (at 0.12 mg/mL final Dox conc) or free Dox at equivalent concentration in freshly collected whole blood from mice and incubated the mixtures at 37° C. up to 1 h. As the anticoagulant, 0.5 mM EDTA, was present in the blood collection, parallel samples were incubated at 37° C. in EDTA alone. Samples representing input HerDox (before incubation in blood) were incubated at 37° C. in HEPES-buffered saline. All samples were then centrifuged through 10K MW cutoff filters and Dox fluorescence measured in retentates and filtrates (SpectraMax M2 from Molecular Devices). […] Likewise, there is no appreciable loss of Dox from HerDox retentates from samples incubated in blood compared to those incubated in saline or EDTA alone (FIG. 13).
# [2] = tested on: GFP(+) MDA-MB-231 (HER2−) cells; assay: Targeting in a mixed cell culture; format: cell-based; conditions: HerDox containing 0.5 uM Dox, day 2
# Experimental: (§2) FIGS. 9 (A)-(C) illustrates targeting in a mixed cell culture. As illustrated in FIG. 10 (A), equal numbers of MDA-MB-435 and GFP(+) MDA-MB-231 cells were treated with Dox alone (0.5 uM), Her-Dox (containing 0.5 uM Dox), or HerPBK10 (1.2 ug/well, equivalent to HerPBK10 in HerDox). Wells were assayed for GFP fluorescence (to determine relative MDA-MB-231 number) and crystal violet staining (to determine total cell number). As illustrated in FIG. 9 (B), cell survival was determined by calculating the relative doubling time (DT) of experimental (exp) cells normalized by control (con) cells based on the crystal violet stains (total cells) and GFP fluorescence (MDA-MB-231 cells). The DT of MDA-MB-435 was determined by subtracting the DT of MDA-MB-231 from the total cell DT. Relative survival is shown for Day 2 of treatment. As illustrated in FIG. 9 (C), there is stability in cell culture. Aliquots of culture media containing HerDox (after incubation for the indicated times at 37° C.) were electrophoresed on a 2% agarose gel. HerDox incubated at 37° C. in HEPES-buffered saline, lacking serum, was processed in parallel. Dox fluorescence was visualized by UV excitation. Free Dox (Dox alone) is not retained in the gel whereas Dox incorporated in HerDox is. […]
# [3] = tested on: MDA-MB-435 (non-GFP, HER2+) cells; assay: Targeting in a mixed cell culture; format: cell-based; conditions: HerDox containing 0.5 uM Dox, day 2
# Experimental: as §2
molecule,measurement,setting,value
B1,EC50,MDA-MB-435,0.74 ± 0.07 µM
same,EC50,SKOV3,0.18 ± 0.03 µM
same,EC50,T47D,0.64 ± 0.04 µM
same,loss of Dox from the conjugate in whole blood,[1],no detectable loss of Dox
same,GFP (HER2−) cell growth in mixed culture,[2],not altered
same,non-GFP (HER2+) cell proliferation in mixed culture,[3],nearly completely reduced
